B1: FBXO3 (parent)
chain: DEEERRRRVFDVPIRRRRCSRLF

Variants of: B1
Assay: protein stability index of a GFP-peptide fusion (GPS, HEK-293T) (PSI 1-6); higher = more stable
Settings: c terminus: native
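Note: lentivirally expressed fusions sorted by FACS into six bins by GFP to DsRed ratio, PSI derived from sequencing read proportions per bin multiplied by bin number.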

Protein stability index, by site and new letter:
R17: S 1.77; I 1.84; M 2.27; K 3.27; C 1.71; G 1.98; E 2.27; L 1.84; N 2.09; D 2.17; P 1.96; H 2.21; V 2.06; W 2.83; F 1.87; A 2.5; Q 2.5; Y 1.58; T 2.82
R18: Y 1.95; I 1.34; N 1.76; Q 1.78; A 1.69; E 2.38; H 2.18; L 2.68; S 2.26; W 2.31; P 1.7; G 3.74; V 1.83; M 2.31; C 2.29; K 2.83; T 1.7; F 1.57
D11: H 2.19; I 2.93; V 1.99; L 2.33; G 2.65; M 2.08; P 3.34; E 2.68; T 2.84; S 2.75; R 2.25; Q 2.4; C 1.53; N 3.06; K 2.51; Y 1.67; A 2.73; W 1.76; F 1.89
R15: L 1.98; A 2.88; K 3.65; V 2.78; F 1.93; M 1.72; Y 1.88; C 2.99; H 1.85; Q 2.27; S 2.39; I 2.31; G 2.74; N 2.21; P 2.56; D 2.27; E 2.44; T 2.72
F10: G 4.62; C 3.43; Y 3.22; V 3.94; A 4.88; K 4.19; I 3.84; N 4.45; S 4.54; Q 4.56; T 4.33; P 4.32; D 4.51; H 4.08; R 3.85; E 4.16; W 2.09; L 3.06; M 3.87
V9: K 3.72; W 2.94; Q 3.45; F 2.19; C 2.74; T 3.65; N 3.75; R 2.71; L 2.53; D 4.46; H 3.54; P 3.44; A 3.43; M 2.47; I 2.42; E 4.03; S 3.47; G 3.87; Y 2.64
S20: K 2.69; L 2.36; M 2.04; Q 2.69; H 2.68; C 4.36; G 3.48; E 3.04; I 2.05; P 2.51; N 2.61; T 1.91; A 2.15; R 3.35; D 2.2; F 2.77
R16: G 3.45; Y 1.72; W 1.99; A 2.53; K 3.51; Q 2.24; N 2.21; H 2.23; F 1.93; I 2.2; L 2.19; D 2.22; E 2.55; T 2.19; P 3.45; S 2.28; V 2.27; M 2.21; C 1.91
I14: G 3.04; Y 2.4; R 3.33; L 2.56; M 2.63; A 2.64; C 2.38; P 3.4; E 2.46; S 2.49; D 2.14; K 3.78; F 2.2; V 3.27; H 2.48; W 2.7; T 3.66; Q 2.53; N 2.25
R5: Y 2.85; M 3.59; C 2.57; W 2.23; E 4.12; P 3.3; A 3.9; T 3.51; I 3.44; N 3.77; K 3.32; S 3.55; H 3.41; D 3.64; Q 4.1; V 3.25; G 3.54; L 3.12; F 3.24
V12: A 3.05; D 2.71; K 3.25; E 2.81; W 2.66; Q 3.24; T 2.75; I 2.32; C 1.73; Y 2.78; L 2.61; H 2.69; S 3.24; G 3.26; P 2.98; R 3.62; M 2.47; N 2.28; F 2.6
R8: G 4.29; L 2.94; Y 1.95; C 2.33; Q 3.66; K 2.87; H 3.1; M 2.89; D 3.58; A 3.74; I 2.88; V 3.66; E 3.64; P 3.63; W 2.4; F 1.28; T 3.86; N 3.35; S 3.01
R6: I 2.36; D 4.26; T 3.66; V 3.2; K 3.35; W 1.56; M 2.58; G 4.09; Y 1.78; E 4.16; A 3.51; L 2.69; Q 3.79; H 3.17; S 3.8; N 3.87; F 1.35; C 2.83; P 3.79
P13: E 2.15; N 2.07; Q 2.2; F 3.42; K 2.9; V 2.89; L 3.65; T 1.44; G 2.24; M 2.19; S 2.23; C 2.98; H 2.95; A 2.46; W 2.87; Y 2.8; R 1.72; D 2.15
E3: Y 1.84; H 2.18; G 2.19; M 2.53; T 1.81; Q 2.57; N 2.79; D 2.63; I 1.99; P 2.32; C 1.94; R 2.34; V 2.54; K 2.68; S 1.91; A 1.88; L 1.48
C19: E 1.83; V 3.22; R 4.59; Q 4.39; D 3.44; P 2.56; M 3.23; K 4.77; L 3.54; S 4.15; G 1.93; T 3.63; W 3.64; F 3.76; A 3.62; N 4.56; I 3.49; Y 3.36; H 4.39
E4: I 2.16; K 1.98; L 1.59; F 2.13; T 2.14; Y 2.14; M 3.23; S 2.08; V 1.86; D 3.66; R 2.9; W 1.73; A 1.98; C 2.58; N 1.92; Q 2.72; H 1.99; G 2.48; P 2.29
R7: N 3.8; G 3.64; I 2.8; K 2.79; W 1.97; D 4; P 3.71; V 3.01; C 2.89; M 2.3; S 4.28; L 3.19; F 2.61; Q 3.69; H 3.06; E 3.88; Y 2.51; A 3.6; T 3.67

Source: the supplement of paper PMC10567573
